Measurements published in paper PMC9256704, “Oncogenic TRIB2 interacts with and regulates PKM2 to promote aerobic glycolysis and lung cancer cell procession” (Cell Death Discovery, 2022).

Biological target: T1, PKM2 (ab89364, Abcam) (human, UniProt P14618 1-531)
T1 construct: human M2 isoform of pyruvate kinase (PKM2), bought recombinant protein; see the vendor's sheet for ab89364; also called PKM2 protein; source: bought: Abcam (ab89364)
Test: BLI; biotinylated TRIB2 loaded onto SSA biosensors, blocked with biocytin (5 μg/ml) for 60 s; PKM2 diluted in PBS as analyte; Octet data analysis software
Conditions: both partners purified

T1 sequence (P14618 whole entry, canonical isoform): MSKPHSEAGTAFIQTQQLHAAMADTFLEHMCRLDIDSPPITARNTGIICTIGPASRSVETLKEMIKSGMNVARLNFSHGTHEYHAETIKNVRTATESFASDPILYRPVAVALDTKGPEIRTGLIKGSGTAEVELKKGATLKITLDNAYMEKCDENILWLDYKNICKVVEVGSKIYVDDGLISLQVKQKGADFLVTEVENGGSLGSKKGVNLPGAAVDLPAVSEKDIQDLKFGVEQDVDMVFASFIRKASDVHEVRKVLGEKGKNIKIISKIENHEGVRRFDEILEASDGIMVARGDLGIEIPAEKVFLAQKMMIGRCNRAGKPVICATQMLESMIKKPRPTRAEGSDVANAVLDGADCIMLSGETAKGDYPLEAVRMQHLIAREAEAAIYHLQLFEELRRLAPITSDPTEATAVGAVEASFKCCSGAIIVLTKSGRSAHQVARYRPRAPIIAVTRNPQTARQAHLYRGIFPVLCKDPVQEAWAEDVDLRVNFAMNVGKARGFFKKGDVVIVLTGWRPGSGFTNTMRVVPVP

- Kd: 7.44 nM
B1: recombinant TRIB2 protein (TP301210, OriGene), biotinylated (natural protein, human, UniProt Q92519 1-343, looked up)
chain: MNIHRSTPITIARYGRSRNKTQDFEELSSIRSAEPSQSFSPNLGSPSPPETPNLSHCVSCIGKYLLLEPLEGDHVFRAVHLHSGEELVCKVFDISCYQESLAPCFCLSAHSNINQITEIILGETKAYVFFERSYGDMHSFVRTCKKLREEEAARLFYQIASAVAHCHDGGLVLRDLKLRKFIFKDEERTRVKLESLEDAYILRGDDDSLSDKHGCPAYVSPEILNTSGSYSGKAADVWSLGVMLYTMLVGRYPFHDIEPSSLFSKIRRGQFNIPETLSPKAKCLIRSILRREPSERLTSQEILDHPWFSTDFSVSNSAYGAKEVSDQLVPDVNMEENLDPFFN
modifications: biotinylated
notes: human Tribbles homologue 2 (TRIB2), bought recombinant protein; also called human TRIB2; source: bought: OriGene (TP301210)
